Measured values: article PMC8770131, “Structural mechanism for the selective phosphorylation of DNA-loaded MCM double hexamers by the Dbf4-dependent kinase” (Nature Structural & Molecular Biology, 2021)

T1: Mcm2 (S. cerevisiae, UniProt P29469 1-868)
T1 construct: Mcm2, S. cerevisiae; Subunit as it stands in the DH of the cryo-EM structures; also called Mcm2 subunit; source: S. cerevisiae, overexpressed as Mcm2-7-Cdt1, purified; in the DNA-loaded double hexamer
T1 sequence: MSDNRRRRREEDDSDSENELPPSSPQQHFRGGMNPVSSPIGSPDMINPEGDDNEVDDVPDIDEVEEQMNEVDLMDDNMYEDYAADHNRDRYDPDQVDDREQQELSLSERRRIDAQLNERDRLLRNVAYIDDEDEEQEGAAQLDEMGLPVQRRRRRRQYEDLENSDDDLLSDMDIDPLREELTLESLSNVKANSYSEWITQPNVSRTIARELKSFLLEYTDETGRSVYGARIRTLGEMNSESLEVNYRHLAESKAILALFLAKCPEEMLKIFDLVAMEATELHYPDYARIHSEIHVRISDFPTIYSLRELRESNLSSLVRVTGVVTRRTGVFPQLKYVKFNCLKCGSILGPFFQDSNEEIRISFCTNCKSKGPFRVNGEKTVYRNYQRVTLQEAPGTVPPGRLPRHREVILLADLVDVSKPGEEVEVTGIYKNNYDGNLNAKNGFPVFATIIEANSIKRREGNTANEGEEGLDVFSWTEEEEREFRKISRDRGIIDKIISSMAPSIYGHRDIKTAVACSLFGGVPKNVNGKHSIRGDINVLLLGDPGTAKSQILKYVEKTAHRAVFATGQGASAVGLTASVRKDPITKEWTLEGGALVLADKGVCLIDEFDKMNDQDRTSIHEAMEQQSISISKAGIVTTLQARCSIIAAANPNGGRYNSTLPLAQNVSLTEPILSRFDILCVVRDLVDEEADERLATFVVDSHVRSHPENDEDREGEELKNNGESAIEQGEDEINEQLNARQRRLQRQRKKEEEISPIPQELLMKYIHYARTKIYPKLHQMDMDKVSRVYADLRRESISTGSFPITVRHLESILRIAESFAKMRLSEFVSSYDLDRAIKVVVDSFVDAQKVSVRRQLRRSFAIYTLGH

T2: Mcm4 (S. cerevisiae, UniProt P30665 1-933)
T2 construct: Mcm4, S. cerevisiae; Subunit as it stands in the DH of the cryo-EM structures; modelled from residue 155 in the DDK-engaged model; also called Mcm4 subunit; source: S. cerevisiae, overexpressed as Mcm2-7-Cdt1, purified; in the DNA-loaded double hexamer
T2 sequence: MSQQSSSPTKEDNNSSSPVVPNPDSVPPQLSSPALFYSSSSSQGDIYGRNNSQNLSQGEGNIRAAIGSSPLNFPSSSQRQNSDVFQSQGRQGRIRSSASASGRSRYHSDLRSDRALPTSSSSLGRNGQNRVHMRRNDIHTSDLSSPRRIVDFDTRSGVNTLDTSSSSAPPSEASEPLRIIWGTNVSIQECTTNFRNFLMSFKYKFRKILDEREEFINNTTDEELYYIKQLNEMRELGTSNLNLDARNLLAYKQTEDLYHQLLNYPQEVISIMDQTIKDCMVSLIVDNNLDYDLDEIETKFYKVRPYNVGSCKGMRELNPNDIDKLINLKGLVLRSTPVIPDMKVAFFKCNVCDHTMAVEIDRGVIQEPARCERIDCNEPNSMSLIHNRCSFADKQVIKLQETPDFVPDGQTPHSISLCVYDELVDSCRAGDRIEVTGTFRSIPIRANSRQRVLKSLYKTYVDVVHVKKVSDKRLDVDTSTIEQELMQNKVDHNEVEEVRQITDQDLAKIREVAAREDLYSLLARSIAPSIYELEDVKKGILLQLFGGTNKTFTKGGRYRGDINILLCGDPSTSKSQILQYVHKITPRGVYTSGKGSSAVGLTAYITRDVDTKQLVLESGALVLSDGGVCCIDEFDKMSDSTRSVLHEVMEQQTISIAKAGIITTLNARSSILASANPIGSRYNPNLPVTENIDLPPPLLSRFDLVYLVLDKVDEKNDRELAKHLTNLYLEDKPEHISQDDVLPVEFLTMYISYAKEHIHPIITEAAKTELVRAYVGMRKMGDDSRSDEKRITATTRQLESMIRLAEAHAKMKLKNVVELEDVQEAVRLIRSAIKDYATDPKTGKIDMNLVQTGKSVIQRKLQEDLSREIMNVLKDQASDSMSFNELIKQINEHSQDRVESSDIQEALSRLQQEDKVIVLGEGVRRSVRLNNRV

B1: Dbf4 (natural protein, S. cerevisiae)
chain: MVSPTKMIIRSPLKETDTNLKHNNGIAASTTAAGHLNVFSNDNNCNNNNTTESFPKKRSLERLELQQQQHLHEKKRARIERARSIEGAVQVSKGTGLKNVEPRVTPKELLEWQTNWKKIMKRDSRIYFDITDDVEMNTYNKSKMDKRRDLLKRGFLTLGAQITQFFDTTVTIVITRRSVENIYLLKDTDILSRAKKNYMKVWSYEKAARFLKNLDVDLDHLSKTKSASLAAPTLSNLLHNEKLYGPTDRDPRTKRDDIHYFKYPHVYLYDLWQTWAPIITLEWKPQELTNLDELPYPILKIGSFGRCPFIGDRNYDESSYKRVVKRYSRDKANKKYALQLRALFQYHADTLLNTSSVNDQTKNLIFIPHTCNDSTKSFKKWMQEKAKNFEKTELKKTDDSAVQDVRNEHADQTDEKNSILLNETETKEPPLKEEKENKQSIAEESNKYPQRKELAATPKLNHPVLATFARQETEEVPDDLCTLKTKSRQAFEIKASGAHQSNDVATSFGNGLGPTRASVMSKNMKSLSRLMVDRKLGVKQTNGNNKNYTATIATTAETSKENRHRLDFNALKKDEAPSKETGKDSAVHLETNRKPQNFPKVATKSVSADSKVHNDIKITTTESPTASKKSTSTNVTLHFNAQTAQTAQPVKKETVKNSGYCENCRVKYESLEQHIVSEKHLSFAENDLNFEAIDSLIENLRFQI
notes: Dbf4, S. cerevisiae; Subunit as it stands in DDK in the DH-DDK cryo-EM structure; also called Dbf4 subunit of DDK; CBP-Dbf4; source: S. cerevisiae, overexpressed with Cdc7, purified as DDK
B2: Cdc7 (enzyme, S. cerevisiae)
chain: MTSKTKNIDDIPPEIKEEMIQLYHDLPGIENEYKLIDKIGEGTFSSVYKAKDITGKITKKFASHFWNYGSNYVALKKIYVTSSPQRIYNELNLLYIMTGSSRVAPLCDAKRVRDQVIAVLPYYPHEEFRTFYRDLPIKGIKKYIWELLRALKFVHSKGIIHRDIKPTNFLFNLELGRGVLVDFGLAEAQMDYKSMISSQNDYDNYANTNHDGGYSMRNHEQFCPCIMRNQYSPNSHNQTPPMVTIQNGKVVHLNNVNGVDLTKGYPKNETRRIKRANRAGTRGFRAPEVLMKCGAQSTKIDIWSVGVILLSLLGRRFPMFQSLDDADSLLELCTIFGWKELRKCAALHGLGFEASGLIWDKPNGYSNGLKEFVYDLLNKECTIGTFPEYSVAFETFGFLQQELHDRMSIEPQLPDPKTNMDAVDAYELKKYQEEIWSDHYWCFQVLEQCFEMDPQKRSSAEDLLKTPFFNELNENTYLLDGESTDEDDVVSSSEADLLDKDVLLISE
notes: Cdc7, S. cerevisiae; Subunit as it stands in DDK in the DH-DDK cryo-EM structure; also called Cdc7 catalytic subunit of DDK; source: S. cerevisiae, overexpressed with CBP-Dbf4, purified as DDK
B3: Mcm7 (natural protein, S. cerevisiae)
chain: MSAALPSIQLPVDYNNLFNEITDFLVTFKQDTLSSDATRNENEDENLDAENIEQHLLEKGPKYMAMLQKVANRELNSVIIDLDDILQYQNEKFLQGTQADDLVSAIQQNANHFTELFCRAIDNNMPLPTKEIDYKDDVLDVILNQRRLRNERMLSDRTNEIRSENLMDTTMDPPSSMNDALREVVEDETELFPPNLTRRYFLYFKPLSQNCARRYRKKAISSKPLSVRQIKGDFLGQLITVRGIITRVSDVKPAVEVIAYTCDQCGYEVFQEVNSRTFTPLSECTSEECSQNQTKGQLFMSTRASKFSAFQECKIQELSQQVPVGHIPRSLNIHVNGTLVRSLSPGDIVDVTGIFLPAPYTGFKALKAGLLTETYLEAQFVRQHKKKFASFSLTSDVEERVMELITSGDVYNRLAKSIAPEIYGNLDVKKALLLLLVGGVDKRVGDGMKIRGDINVCLMGDPGVAKSQLLKAICKISPRGVYTTGKGSSGVGLTAAVMKDPVTDEMILEGGALVLADNGICCIDEFDKMDESDRTAIHEVMEQQTISISKAGINTTLNARTSILAAANPLYGRYNPRLSPLDNINLPAALLSRFDILFLMLDIPSRDDDEKLAEHVTYVHMHNKQPDLDFTPVEPSKMREYIAYAKTKRPVMSEAVNDYVVQAYIRLRQDSKREMDSKFSFGQATPRTLLGIIRLSQALAKLRLADMVDIDDVEEALRLVRVSKESLYQETNKSKEDESPTTKIFTIIKKMLQETGKNTLSYENIVKTVRLRGFTMLQLSNCIQEYSYLNVWHLINEGNTLKFVDDGTMDTDQEDSLVSTPKLAPQTTASANVSAQDSDIDLQDA
notes: Mcm7, S. cerevisiae; also called Mcm7 subunit; source: S. cerevisiae, overexpressed as Mcm2-7-Cdt1, purified; in the DNA-loaded double hexamer

Columns and labels:
Test in all cases: cryo-EM structure; DH loaded with ORC, Cdc6 and Mcm2-7-Cdt1 (96 nM each) on MH-capped ARS1 DNA (8 nM) in buffer B at 30 °C, then 289 nM DDK for 50 min before plunge-freezing; neither crosslinking nor nucleotide analogs
Conditions in all cases: both partners purified
Mcm2 = biological target: T1, Mcm2
Mcm4 = biological target: T2, Mcm4
Dbf4 = biological target: B1
Mcm3 = biological target: T3, Mcm3 (S. cerevisiae, UniProt P24279 1-971)
T3 construct: Mcm3, S. cerevisiae; also called Mcm3 subunit; source: S. cerevisiae, overexpressed as Mcm2-7-Cdt1, purified; in the DNA-loaded double hexamer
T3 sequence (P24279 whole entry): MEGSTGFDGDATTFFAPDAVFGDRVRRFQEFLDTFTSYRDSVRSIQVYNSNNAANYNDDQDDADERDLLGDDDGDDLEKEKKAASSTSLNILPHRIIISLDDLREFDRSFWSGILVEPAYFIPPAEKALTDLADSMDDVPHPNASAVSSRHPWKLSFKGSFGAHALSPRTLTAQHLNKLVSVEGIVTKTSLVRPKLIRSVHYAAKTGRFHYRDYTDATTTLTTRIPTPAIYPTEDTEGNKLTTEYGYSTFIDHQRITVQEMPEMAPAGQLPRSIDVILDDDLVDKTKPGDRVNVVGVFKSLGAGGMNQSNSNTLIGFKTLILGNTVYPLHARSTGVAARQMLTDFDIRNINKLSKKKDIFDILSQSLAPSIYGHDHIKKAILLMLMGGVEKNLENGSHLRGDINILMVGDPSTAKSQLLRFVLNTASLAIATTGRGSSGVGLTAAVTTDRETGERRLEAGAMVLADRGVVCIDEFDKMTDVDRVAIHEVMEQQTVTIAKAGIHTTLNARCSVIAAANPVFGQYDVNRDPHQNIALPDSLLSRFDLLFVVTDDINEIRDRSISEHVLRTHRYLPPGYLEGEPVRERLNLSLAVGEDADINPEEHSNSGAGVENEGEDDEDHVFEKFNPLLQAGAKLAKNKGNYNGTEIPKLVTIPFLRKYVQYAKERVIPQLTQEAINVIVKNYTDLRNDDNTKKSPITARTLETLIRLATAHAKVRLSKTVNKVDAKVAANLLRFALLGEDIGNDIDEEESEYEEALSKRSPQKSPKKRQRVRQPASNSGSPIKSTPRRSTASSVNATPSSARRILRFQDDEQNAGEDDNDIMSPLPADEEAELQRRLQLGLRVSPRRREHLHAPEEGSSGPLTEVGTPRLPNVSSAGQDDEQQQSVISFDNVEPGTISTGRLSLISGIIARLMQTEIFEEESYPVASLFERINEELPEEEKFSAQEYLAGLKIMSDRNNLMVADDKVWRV

binding result (Mcm2)	binding result (Mcm4)	binding result (Dbf4)	binding result (Mcm3)	Binder
binds	binds	–	–	B1
–	binds	binds	–	B2
–	binds	–	binds	B3
